T1: MMP-9 C domain (Homo sapiens, UniProt P14780)
T1 construct: MMP-9 (Asp^494-Asp^688) were expressed as described (16); made in house; host or cells: E. coli (β5 fragment)
T1 sequence (P14780 513-707 limits assumed): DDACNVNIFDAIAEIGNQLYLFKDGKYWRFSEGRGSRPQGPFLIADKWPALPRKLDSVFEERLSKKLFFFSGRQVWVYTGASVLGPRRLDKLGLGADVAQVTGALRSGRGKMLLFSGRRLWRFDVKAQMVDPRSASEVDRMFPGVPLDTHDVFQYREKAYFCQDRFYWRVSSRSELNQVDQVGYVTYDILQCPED

B1: pro-MMP-9-ΔHC: pro-MMP-9 lacking the hinge region and the C domain (protein)
chain: APRQRQSTLVLFPGDLRTNLTDRQLAEEYLYRYGYTRVAEMRGESKSLGPALLLLQKQLSLPETGELDSATLKAMRTPRCGVPDLGRFQTFEGDLKWHHHNITYWIQNYSEDLPRAVIDDAFARAFALWSAVTPLTFTRVYSRDADIVIQFGVAEHGDGYPFDGKDGLLAHAFPPGPGIQGDAHFDDDELWSLGKGVVVPTRFGNADGAACHFPFIFEGRSYSACTTDGRSDGLPWCSTTANYDTDDRFGFCPSERLYTQDGNADGKPCQFPFIFQGQSYSACTTDGRSDGYRWCATTANYDRDKLFGFCPTRADSTVMGGNSAGELCVFPFTFLGKEYSTCTSEGRGDGRLWCATTSNFDSDKKWGFCPDQGYSLFLVAAHEFGHALGLDHSSVPEALMYPMYRFTEGPPLHKDDVNGIRHLYG
B2: MMP-2 C domain: recombinant C-terminal domain of MMP-2 (Glu438-Cys631) (protein)
chain: EICKQDIVFDGIAQIRGEIFFFKDRFIWRTVTPRDKPMGPLLVATFWPELPEKIDAVYEAPQEEKAVFFAGNEYWIYSASTLERGYPKPLTSLGLPPDVQRVDAAFNWSKNKKTYIFAGDKFWRYNEVKKKMDPGFPKLIADAWNAIPDNLDAVVDLQGGGHSYFFKGAYYLKLENQSLKSVKFGSIKSDWLGC
B3: CBD: recombinant collagen binding domain of MMP-9 (Gly204-Gly373) (protein)
chain: GNADGAACHFPFIFEGRSYSACTTDGRSDGLPWCSTTANYDTDDRFGFCPSERLYTQDGNADGKPCQFPFIFQGQSYSACTTDGRSDGYRWCATTANYDRDKLFGFCPTRADSTVMGGNSAGELCVFPFTFLGKEYSTCTSEGRGDGRLWCATTSNFDSDKKWGFCPDQG
B4: β5 I-EGF2+3: integrin β5 I-EGF2+3 fragment (Glu476-Asn563) with N-terminal His6-tag (protein)
chain: ECQDGENQSVYQNLCREAEGKPLCSGRGDCSCNQCSCFESEFGKIYGPFCECDNFSCARNKGVLCSGHGECHCGECKCHAGYIGDNCN
modifications: left off: small tags and cut ends
notes: integrin β5 I-EGF2+3 fragment (Glu476-Asn563) with N-terminal His6-tag
B5: MMP-9 C domain: recombinant C-terminal hemopexin-like domain of MMP-9 (Asp494-Asp688) (protein)
chain: DDACNVNIFDAIAEIGNQLYLFKDGKYWRFSEGRGSRPQGPFLIADKWPALPRKLDSVFEERLSKKLFFFSGRQVWVYTGASVLGPRRLDKLGLGADVAQVTGALRSGRGKMLLFSGRRLWRFDVKAQMVDPRSASEVDRMFPGVPLDTHDVFQYREKAYFCQDRFYWRVSSRSELNQVDQVGYVTYDILQCPED

What was measured:
HT1080 cells = assay: HT1080 cell adhesion to vitronectin or fibronectin; format: cell-based, human; details: proteins 40 μg/ml, CRV peptide 200 μM
Description: (§1) Cell adhesion. HT1080 cells were allowed to adhere on vitronectin or fibronectin (2 μg/ml) in the presence or absence of peptides (200 μM), proteins (40 μg/ml) or a monoclonal anti-αvβ5 integrin antibody P1F6 (Chemicon) or a control antibody (25 μg/ml). The adhesion was quantified as described (14). Adhesion of THP-1 cells to immobilized KIM127 or control monoclonal antibodies (2 μg/ml) was done in the presence or absence of soluble proteins (50 μg/ml) or antibodies (25 μg/ml).

[1] = test system: β5 integrin-transfected CS-1 melanoma cells; assay: 125I-C domain binding to cells; format: cell-based, hamster; details: for Competition of 125I-labelled MMP-9 C domain binding to β5 integrin-transfected CS-1 cells: unlabelled proteins 50 μg/ml, peptides 50 μM
Description: ^125I-C domain binding to cells. The MMP-9 C domain was labelled with ^125I to a specific activity 0.06 μCi/pmol. The labelled domain retained 40% of the CRV peptide-binding activity as shown by the phage-binding assay. […] After a preincubation of 1.5×10^6 cells in a 200 μl volume on ice for 30 min with the competitors, ^125I-labelled C domain (1×10^6 cpm) was added and incubated for three hours on ice. The cells were transferred to tubes containing 200 μl of dibutyl phthalate/cyclohexane mixture (23:2 vol/vol), centrifuged 7500×g for 10 minutes and snap-frozen (24). The bottom of the tube containing the cells were cut and analyzed with a gamma-counter.

HT1080 fibrosarcoma = assay: HT1080 invasion through matrigel; format: cell-based, human; details: 50 μg/ml
Description: Cell migration and invasion. The cell migration assay was conducted using transwell migration chambers (8 μm pore size, Costar) in 10% serum-containing medium (2,14). Briefly, the membranes were coated on both sides with 40 μg/ml GST or with the β2 integrin ligand peptide […]-GST fusion (GST-LLG-C4) and blocked with complete medium. THP-1 cells (50 000/100 μl) were preincubated with the peptides for 1 h in serum-containing medium. The cells were allowed to migrate for 16 h and were then stained with crystal violet and counted (14). The HT1080 (20 000 cells/I100 μl) invasion assay was performed as the THP-1 migration, except that matrigel coated transwells (BD Biosciences) were used.

THP-1 cells [2] = assay: THP-1 cell binding to immobilized KIM127 antibody; format: cell-based, human
Description: as §1

MMP-9 C domain = biological target: T1, MMP-9 C domain; assay: β5 I-EGF2+3 binding assay, MMP-9 C domain
Description: (§2) B5 I-EGF2+3 binding assay. MMP-9 C domain, MMP-2 C domain, CBD, β5 I-EGF2+3 or vitronectin (2 μg/ml) were immobilized in microtiter wells. Biotinylated β5 I-EGF2+3 fragment (2.5 μg/ml) was added to the wells which were preincubated with the competitors for 30 min in 1% BSA-PBST and then incubated further for one hour. Bound biotinylated protein was detected with streptavidin-peroxidase.

[3] = test system: MMP-9 CBD, vitronectin, β5 I-EGF2+3, C domain of MMP-2; assay: β5 I-EGF2+3 binding assay, other immobilized proteins
Description: as §2

THP-1 cells [4] = assay: THP-1 cell binding to antibody R3F9C; format: cell-based, human; details: not shown
Description: as §1

Molecule | Inhibition of HT1080 cell adhesion to vitronectin or fibronectin (HT1080 cells) | Competition of 125I-labelled MMP-9 C domain binding to β5 integrin-transfected CS-1 cells [1] | Inhibition of HT1080 invasion through matrigel by integrin and MMP domains (HT1080 fibrosarcoma) | also measured
B1 | Neither |  |  | 
B2 |  | No competition | inhibited HT1080 invasion with a similar potency | 
B3 |  |  |  | Effect on THP-1 cell binding to immobilized KIM127 (THP-1 cells [2]; proteins 50 μg/ml, antibodies 25 μg/ml): did not
B4 |  | competed | inhibited HT1080 invasion with a similar potency | Competition of biotinylated β5 I-EGF2+3 binding to the MMP-9 C domain (MMP-9 C domain): inhibited; Binding of biotinylated β5 I-EGF2+3 to the MMP-9 C domain (MMP-9 C domain; 2.5 μg/ml): specifically bound; Binding of β5 I-EGF2+3 to MMP-9 CBD, vitronectin, itself or the C domain of MMP-2 [3]: did not bind
B5 | Neither | competed | inhibited HT1080 invasion with a similar potency | Binding of 125Iodine-labelled MMP-9 C domain to β5 integrin-transfected CS-1 cells ([1]; not to the untransfected cells): specific binding; Inhibition of THP-1 cell binding to KIM127 (THP-1 cells [2]; 50 μg/ml): 40%; Effect on THP-1 binding to R3F9C (THP-1 cells [4]): no effect

Source: patent publication US20070207967A1, “Peptide Inhibitors of Matrix Metalloproteinase Activity” (CTT CANCER TARGETING TECHNOLOGIES OY, priority 2004, published 2007)
